What was measured:
Experiment in all cases: SPR; PBP1B versions immobilised to the chip surface; CpoB versions injected from either 3.9 nM to 2 μM or from 78 nM to 40 μM; apparent KD by non-linear regression, at least three independent experiments
Conditions in all cases: both partners purified
PBP1B I202F = molecular target: T1, PBP1B I202F (E. coli, UniProt P02919 46-844, I202F)
T1 construct: PBP1B, E. coli, residues 46-844, made by mutagenesis of pDML924; Substitution first found in the suppressor screen of Markovski et al. 2016 (LpoB bypass); source: E. coli BL21(DE3), purified (membrane extract, HisTrap, thrombin, HiTrap SP ion exchange)
T1 sequence (looked up): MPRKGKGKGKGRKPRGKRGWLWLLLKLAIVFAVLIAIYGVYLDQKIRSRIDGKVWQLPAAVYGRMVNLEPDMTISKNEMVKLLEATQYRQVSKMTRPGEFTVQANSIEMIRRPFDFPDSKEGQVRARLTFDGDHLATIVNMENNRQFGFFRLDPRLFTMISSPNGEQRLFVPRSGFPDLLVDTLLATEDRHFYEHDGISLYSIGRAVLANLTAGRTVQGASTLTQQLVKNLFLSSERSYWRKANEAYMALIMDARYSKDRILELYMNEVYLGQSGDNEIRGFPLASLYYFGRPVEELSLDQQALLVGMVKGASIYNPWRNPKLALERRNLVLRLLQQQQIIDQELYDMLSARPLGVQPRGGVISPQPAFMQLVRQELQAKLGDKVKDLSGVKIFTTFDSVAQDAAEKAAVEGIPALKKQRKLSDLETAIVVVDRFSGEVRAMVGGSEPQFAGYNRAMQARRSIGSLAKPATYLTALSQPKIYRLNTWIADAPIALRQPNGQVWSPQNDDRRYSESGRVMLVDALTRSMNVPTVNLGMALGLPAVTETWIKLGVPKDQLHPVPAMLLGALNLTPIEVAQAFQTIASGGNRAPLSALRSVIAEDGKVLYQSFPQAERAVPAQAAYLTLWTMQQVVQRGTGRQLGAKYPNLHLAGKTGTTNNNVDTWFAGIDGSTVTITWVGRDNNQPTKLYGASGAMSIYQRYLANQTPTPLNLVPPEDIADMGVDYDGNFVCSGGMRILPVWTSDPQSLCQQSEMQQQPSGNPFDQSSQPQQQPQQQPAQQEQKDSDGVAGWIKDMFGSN

PBP1B N112G = molecular target: T2, PBP1B N112G (E. coli, UniProt P02919 46-844, N112G)
T2 construct: PBP1B, E. coli, residues 46-844, made by mutagenesis of pDML924; source: E. coli BL21(DE3), purified (membrane extract, HisTrap, thrombin, HiTrap SP ion exchange)
T2 sequence (looked up): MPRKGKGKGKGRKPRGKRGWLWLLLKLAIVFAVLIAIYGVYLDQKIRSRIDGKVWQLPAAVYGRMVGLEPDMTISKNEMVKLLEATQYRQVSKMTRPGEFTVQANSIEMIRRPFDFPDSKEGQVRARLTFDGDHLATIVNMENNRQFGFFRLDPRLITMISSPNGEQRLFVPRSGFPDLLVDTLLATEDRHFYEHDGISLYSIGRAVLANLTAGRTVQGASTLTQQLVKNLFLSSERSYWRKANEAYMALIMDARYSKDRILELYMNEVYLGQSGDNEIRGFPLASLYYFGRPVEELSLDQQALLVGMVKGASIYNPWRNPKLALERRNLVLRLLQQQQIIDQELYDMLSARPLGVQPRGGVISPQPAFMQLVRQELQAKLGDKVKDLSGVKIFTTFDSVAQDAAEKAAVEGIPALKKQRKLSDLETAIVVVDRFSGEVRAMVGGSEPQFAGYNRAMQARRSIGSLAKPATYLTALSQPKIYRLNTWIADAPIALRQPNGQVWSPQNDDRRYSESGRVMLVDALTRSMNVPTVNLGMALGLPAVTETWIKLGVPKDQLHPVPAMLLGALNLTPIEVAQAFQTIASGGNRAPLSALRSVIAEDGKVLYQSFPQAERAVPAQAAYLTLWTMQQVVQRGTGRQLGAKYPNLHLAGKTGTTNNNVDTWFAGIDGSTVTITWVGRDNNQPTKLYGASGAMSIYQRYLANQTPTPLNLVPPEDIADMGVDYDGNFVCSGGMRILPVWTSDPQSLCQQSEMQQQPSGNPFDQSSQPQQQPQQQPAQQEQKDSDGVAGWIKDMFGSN

PBP1B D443A = molecular target: T3, PBP1B D443A (E. coli, UniProt P02919 46-844, D443A)
T3 construct: PBP1B, E. coli, residues 46-844, made by mutagenesis of pDML924; source: E. coli BL21(DE3), purified (membrane extract, HisTrap, thrombin, HiTrap SP ion exchange)
T3 sequence (looked up): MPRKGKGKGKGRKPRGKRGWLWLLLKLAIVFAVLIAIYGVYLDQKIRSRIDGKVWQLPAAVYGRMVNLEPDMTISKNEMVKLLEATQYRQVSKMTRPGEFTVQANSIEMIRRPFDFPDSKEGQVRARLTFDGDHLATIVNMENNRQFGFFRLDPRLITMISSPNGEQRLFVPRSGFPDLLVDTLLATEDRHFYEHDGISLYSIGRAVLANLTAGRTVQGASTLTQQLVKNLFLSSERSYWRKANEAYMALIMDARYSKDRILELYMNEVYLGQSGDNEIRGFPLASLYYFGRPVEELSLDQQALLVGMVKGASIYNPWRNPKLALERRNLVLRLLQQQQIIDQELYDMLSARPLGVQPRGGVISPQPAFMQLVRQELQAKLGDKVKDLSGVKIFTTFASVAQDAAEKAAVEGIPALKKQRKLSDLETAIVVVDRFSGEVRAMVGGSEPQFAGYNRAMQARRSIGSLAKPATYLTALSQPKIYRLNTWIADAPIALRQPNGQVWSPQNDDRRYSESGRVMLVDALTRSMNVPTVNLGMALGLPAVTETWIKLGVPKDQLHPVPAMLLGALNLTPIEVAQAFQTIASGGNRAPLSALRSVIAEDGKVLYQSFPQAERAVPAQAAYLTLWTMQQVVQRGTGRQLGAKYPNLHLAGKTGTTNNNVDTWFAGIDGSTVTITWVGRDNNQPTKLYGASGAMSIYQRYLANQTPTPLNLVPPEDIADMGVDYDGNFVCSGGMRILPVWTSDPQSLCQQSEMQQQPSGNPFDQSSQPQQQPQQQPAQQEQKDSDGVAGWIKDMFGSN

B1: CpoB (full length) (natural protein, E. coli, UniProt P45955 27-263, looked up)
chain: QAPISSVGSGSVEDRVTQLERISNAHSQLLTQLQQQLSDNQSDIDSLRGQIQENQYQLNQVVERQKQILLQIDSLSSGGAAAQSTSGDQSGAAASTTPTADAGTANAGAPVKSGNANTDYNAAIALVQDKSRQDDAMVAFQNFIKNYPDSTYLPNANYWLGQLNYNKGKKDDAAYYFASVVKNYPKSPKAADAMFKVGVIMQDKGDTAKAKAVYQQVISKYPGTDGAKQAQKRLNAM
notes: CpoB, E. coli; The coiled-coil construct begins at residue 27, so the purified 'full length' protein may lack the signal peptide (surmise); source: E. coli BL21(DE3), purified (HisTrap, Superdex 200), as in Gray et al. 2015
Kd (PBP1B I202F): > 2000 nM
Kd (PBP1B N112G): 89 nM
Kd (PBP1B D443A): 95 nM

Reference: article PMC6220978, “Induced conformational changes activate the peptidoglycan synthase PBP1B” (Molecular Microbiology, 2018)
